Tests used:
[1] = target: T1, recombinant VEGFR-2 protein (water soluble extracellular site of human VEGFR-2 with Fc of human IgG1 … (human, UniProt P35968 20-764)); assay: competitive ELISA; synergibody titrated with 1 nM VEGFR-2 on coated VEGF 165
T1 construct: extracellular domain; Bought; not shown: Fc of human IgG1
Description: Competitive ELISA is performed using the peptides synthesized above in Section 6A in order to assess the molecular interaction of the binders. […] Then the plate is washed five times with PBS containing 0.1% Tween-20, and blocked at room temperature for two hours with PBS containing 5% BSA. For VEGF:VEGFR-2 neutralization ELISA, each of the peptides synthesized in Section 6A above are diluted to one-fourth each time from 100 nM with PBS containing 1 nM VEGFR-2 and 1% BSA, and adjusted to 6.1 pM. 100 μl of peptide/VEGFR-2 solution is added to each well and the plate is left to react at room temperature for two hours. Subsequently, it is washed five times with PBS containing 0.1% Tween-20, mouse anti-VEGFR-2 antibodies (R&D Systems) is diluted to about 1:3,000 with PBS containing 1% BSA, and left to react at room temperature for one hour. Then 100 μl of goat anti-mouse-IgG-HRP (Pierce) diluted to about 1:10,000 with PBS containing 1% BSA is added to each well of the plate, left to react at room temperature for one hour, and washed five times with PBS containing 0.1% Tween-20. Lastly, 100 μl of TMB substrate (SIGMA) is added to each well of the plate to induce color reaction. The reaction is stopped by adding 50 μl of 5N H₂SO₄ solution, and the OD₄₅₀ value is read on a plate reader (Molecular Devices). Through the foregoing, the IC₅₀ value for the VEGF:VEGFR-2 binding capacity is obtained.
The method in Example 2, Section 6B above is used, except that, in the present example, each fused protein synergibodies are diluted from 100 nM to one-fourth each time with PBS containing 1% BSA and 1nM VEGFR-2 and adjusted to 6.1 pM for VEGF:VEGF-2 neutralization ELISA.

[2] = target: T2, recombinant hAng-2 (recombinant protein with His tag attached to human Ang-2; R&D Systems) (human, UniProt O15123 19-496); assay: competitive ELISA; synergibody titrated with 1 nM hAng-2 (His) on coated hTie2-Fc
T2 construct: also called angiopoietin-2; ANGPT2
T2 sequence (looked up): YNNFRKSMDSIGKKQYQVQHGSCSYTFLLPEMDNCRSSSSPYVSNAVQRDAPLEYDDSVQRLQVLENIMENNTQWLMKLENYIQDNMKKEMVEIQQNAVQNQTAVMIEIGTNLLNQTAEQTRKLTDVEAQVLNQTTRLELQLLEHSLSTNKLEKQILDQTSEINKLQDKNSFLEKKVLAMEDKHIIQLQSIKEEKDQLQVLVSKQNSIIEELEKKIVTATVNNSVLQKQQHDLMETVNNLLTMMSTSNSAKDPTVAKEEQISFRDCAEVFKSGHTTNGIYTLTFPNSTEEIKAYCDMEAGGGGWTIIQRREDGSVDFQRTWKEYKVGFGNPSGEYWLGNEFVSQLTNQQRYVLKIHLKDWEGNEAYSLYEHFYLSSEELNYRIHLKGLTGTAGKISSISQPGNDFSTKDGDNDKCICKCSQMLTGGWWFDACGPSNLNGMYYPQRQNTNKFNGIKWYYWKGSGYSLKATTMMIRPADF
Description: A competitive ELISA is performed to assess the molecular interaction of the binders. A 96-well MaxiSorp™ flat-bottom plate (Nunc) is coated with hTie2-Fc (R&D Systems), which is a fused protein including the water-soluble extracellular portion of human Tie-2 and Fc of human IgG₁ dissolved in DMEM culture solution containing 50 μg/ml bovine serum albumin (BSA). The concentration of hTie2-Fc used as a coating material is equivalent to 75% of its maximum binding concentration with 1 nM of recombinant hAng-2 (recombinant protein with His tag attached to human Ang-2; R&D Systems). Then the plate is washed five times with Phosphate Buffer Saline (PBS) containing 0.1% Tween-20 and blocked at room temperature for two hours with PBS containing 5% BSA. Each anti-Ang-2 antibodies are diluted from 100 nM by one-fourth each time with PBS containing 1% BSA and 1 nM hAng-2 and adjusted to 6.1 pM for Ang-2:Tie-2 neutralization ELISA. 100 μl of antibody/hAng-2 solutions are placed in each corresponding well and left to react at room temperature for two hours. Then the wells are washed five times with PBS containing 0.1% Tween-20, and the anti-His antibodies (GE Healthcare) are diluted to about 1:3,000 with PBS containing 1% BSA and left to react at room temperature for one hour. Afterwards, 100 μl of goat anti-mouse-IgG-HRP (Pierce) diluted with PBS containing 1% BSA to about 1:10,000 is added to each well of the plate, left to react at room temperature for one hour, and washed with PBS containing 0.1% Tween-20 five times. Lastly, 100 μl of TMB substrate (SIGMA) is added to each well of the plate to induce color reaction, and the reaction is stopped by adding 50 μl of 5N H₂SO₄ solution. The OD₄₅₀ value is read on a plate reader (Molecular Devices).
The method described in Example 1, Section 3 above is used, except that, in the present example, each fused protein synergibodies are diluted from 100 nM to one-fourth each time with PBS containing 1% BSA and 1 nM hAng-2 and adjusted to 6.1 pM for Ang-2:Tie-2 neutralization ELISA.

T1 sequence (P35968 20-764): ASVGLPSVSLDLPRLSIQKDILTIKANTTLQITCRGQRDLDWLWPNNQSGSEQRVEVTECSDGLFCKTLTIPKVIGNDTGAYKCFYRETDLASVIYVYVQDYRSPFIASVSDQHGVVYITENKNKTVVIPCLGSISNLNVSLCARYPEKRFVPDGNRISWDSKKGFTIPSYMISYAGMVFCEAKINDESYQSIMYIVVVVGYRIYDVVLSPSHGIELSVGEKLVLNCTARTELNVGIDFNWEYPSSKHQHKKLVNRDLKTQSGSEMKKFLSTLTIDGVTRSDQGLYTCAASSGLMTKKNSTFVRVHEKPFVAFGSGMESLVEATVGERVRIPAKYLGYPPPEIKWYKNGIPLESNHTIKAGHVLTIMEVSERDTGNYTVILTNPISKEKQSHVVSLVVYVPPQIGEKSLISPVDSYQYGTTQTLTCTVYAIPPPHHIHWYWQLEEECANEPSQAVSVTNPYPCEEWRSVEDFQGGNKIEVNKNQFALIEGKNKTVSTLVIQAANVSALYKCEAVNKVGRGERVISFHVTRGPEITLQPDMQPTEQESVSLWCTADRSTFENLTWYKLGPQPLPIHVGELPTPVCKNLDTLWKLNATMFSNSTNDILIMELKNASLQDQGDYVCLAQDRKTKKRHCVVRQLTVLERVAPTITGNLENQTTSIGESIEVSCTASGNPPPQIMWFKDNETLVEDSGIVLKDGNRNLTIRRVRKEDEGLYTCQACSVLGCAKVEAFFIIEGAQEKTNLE

B1: Syn-Ang-VEGFR-11 (other)
heavy (part 1 of 2): DVQLVESGGGLVQPGGSRKLSCAASGFTFSSFGMHWVRQAPEKGLEWVAYISSDSSTIYYADTVKGRFTISRDNPKNTLFLQMTSLRSEDTAMYYCAREGGYDDYYAMDYWGQGTSVTVSS
heavy (part 2 of 2): TGSDDLCYTFPCMHY
light: DIQMTQSPASQSASLGESVTITCLASQTIGTWLAWYQQKPGKSPQLLIYAATSLADGVPSRFSGSGSGTKFSFKISSLQAEDFVSYYCQQLYSIPLTFGGGTKLEIK
notes: Chimeric (human IgG1) SAITAng-2-3 with the peptide at the C-terminus of the heavy chain; also called SAITAng-2-3 x DTN6VEGFR-2-1; not shown: human IgG1 heavy chain constant region with Fc region, from the vector; human light chain constant region, printed as 'constant region of human IgG1'
IC50 [1]: 0.872 nM
IC50 [2]: 0.858 nM

B2: Syn-Ang-VEGFR-15 (other)
heavy (part 1 of 2): DVQLVESGGGLVQPGGSRKLSCAASGFTFSSFGMHWVRQAPEKGLEWVAYISSDSSTIYYADTVKGRFTISRDNPKNTLFLQMTSLRSEDTAMYYCAREGGYDDYYAMDYWGQGTSVTVSS
heavy (part 2 of 2): PGSQGYCHLNMRYQWICDSE
light: DIQMTQSPASQSASLGESVTITCLASQTIGTWLAWYQQKPGKSPQLLIYAATSLADGVPSRFSGSGSGTKFSFKISSLQAEDFVSYYCQQLYSIPLTFGGGTKLEIK
notes: Chimeric (human IgG1) SAITAng-2-3 with the peptide at the C-terminus of the heavy chain; also called SAITAng-2-3 x DTN11VEGFR-2-5; not shown: human IgG1 heavy chain constant region with Fc region, from the vector; human light chain constant region, printed as 'constant region of human IgG1'
IC50 [1]: 1.05 nM
IC50 [2]: 0.925 nM

B3: Syn-Ang-VEGFR-14 (other)
heavy (part 1 of 2): DVQLVESGGGLVQPGGSRKLSCAASGFTFSSFGMHWVRQAPEKGLEWVAYISSDSSTIYYADTVKGRFTISRDNPKNTLFLQMTSLRSEDTAMYYCAREGGYDDYYAMDYWGQGTSVTVSS
heavy (part 2 of 2): TGSGRMCDGSGPPTNCWFT
light: DIQMTQSPASQSASLGESVTITCLASQTIGTWLAWYQQKPGKSPQLLIYAATSLADGVPSRFSGSGSGTKFSFKISSLQAEDFVSYYCQQLYSIPLTFGGGTKLEIK
notes: Chimeric (human IgG1) SAITAng-2-3 with the peptide at the C-terminus of the heavy chain; also called SAITAng-2-3 x DTN10VEGFR-2-4; not shown: human IgG1 heavy chain constant region with Fc region, from the vector; human light chain constant region, printed as 'constant region of human IgG1'
IC50 [1]: 0.889 nM
IC50 [2]: 0.887 nM

B4: Syn-Ang-VEGFR-13 (other)
heavy (part 1 of 2): DVQLVESGGGLVQPGGSRKLSCAASGFTFSSFGMHWVRQAPEKGLEWVAYISSDSSTIYYADTVKGRFTISRDNPKNTLFLQMTSLRSEDTAMYYCAREGGYDDYYAMDYWGQGTSVTVSS
heavy (part 2 of 2): EAGAYWCKAWGLSPCLVT
light: DIQMTQSPASQSASLGESVTITCLASQTIGTWLAWYQQKPGKSPQLLIYAATSLADGVPSRFSGSGSGTKFSFKISSLQAEDFVSYYCQQLYSIPLTFGGGTKLEIK
notes: Chimeric (human IgG1) SAITAng-2-3 with the peptide at the C-terminus of the heavy chain; also called SAITAng-2-3 x DTN9VEGFR-2-3; not shown: human IgG1 heavy chain constant region with Fc region, from the vector; human light chain constant region, printed as 'constant region of human IgG1'
IC50 [1]: 0.914 nM
IC50 [2]: 0.903 nM

B5: Syn-Ang-VEGFR-12 (other)
heavy (part 1 of 2): DVQLVESGGGLVQPGGSRKLSCAASGFTFSSFGMHWVRQAPEKGLEWVAYISSDSSTIYYADTVKGRFTISRDNPKNTLFLQMTSLRSEDTAMYYCAREGGYDDYYAMDYWGQGTSVTVSS
heavy (part 2 of 2): EAGKETCGYEWQYCPRP
light: DIQMTQSPASQSASLGESVTITCLASQTIGTWLAWYQQKPGKSPQLLIYAATSLADGVPSRFSGSGSGTKFSFKISSLQAEDFVSYYCQQLYSIPLTFGGGTKLEIK
notes: Chimeric (human IgG1) SAITAng-2-3 with the peptide at the C-terminus of the heavy chain; also called SAITAng-2-3 x DTN8VEGFR-2-2; not shown: human IgG1 heavy chain constant region with Fc region, from the vector; human light chain constant region, printed as 'constant region of human IgG1'
IC50 [1]: 0.854 nM
IC50 [2]: 0.833 nM

B6: Syn-Ang-VEGFR-16 (other)
heavy (part 1 of 2): QVQLQQSGAELARPGASVKLSCKASGYTFTDYYINWAKQRTGQGLEWIGEIYPGSGDTYYNEKFKGKATLTADKSSSTAYMQLSSLTSEDSAVYFCARYGYKGVYFDYWGQSTTLTVSS
heavy (part 2 of 2): TGSDDLCYTFPCMHY
light: ENVLTQSPAIMAASLGQKVTMTCSASSSVSSSYLHWYQQKSGASPKPLIHRTSNLASGVPARFSGSGSGTSYSLTISSVEAEDDATYYCQQWSGYPFTFGAGTKLELK
notes: Chimeric (human IgG1) SAITAng-2-4 with the peptide at the C-terminus of the heavy chain; also called SAITAng-2-4 x DTN6VEGFR-2-1; not shown: human IgG1 heavy chain constant region with Fc region, from the vector; human light chain constant region, printed as 'constant region of human IgG1'
IC50 [1]: 1.16 nM
IC50 [2]: 1.22 nM
